Measured values taken from patent US20260216299A1, “Use of Cytoglobin in Preparation of Drug for Preventing and/or Treating Diabetes” (priority 2022, published 2026).

What was measured:
Type in all cases: in vivo, C57BL/6J mice
[1] = test system: C57BL/6J diabetic model mice; assay: Weekly fasting blood glucose in high-fat diet diabetic model mice under treatment; settings: daily subcutaneous injection, rhCygb 5 mg/kg; weekly monitoring; vs PBS group; FIG. 7
From the text: 50 SPF-grade male C57BL/6J mice were purchased from Guangzhou Sebiona Biotech Co., Ltd. Their health status and whether they were all male were checked. All male mice were divided into groups of 5 per cage, totaling ten cages, with cage numbering. Cages 1 to 8 were designated as the high-fat diet modeling group and fed a high-fat diet with ad libitum feeding and drinking. Cages 9 and 10 were designated as the normal diet modeling group and fed standard chow with ad libitum feeding and drinking. All mice were marked with tail lines for identification. During modeling, body weight and fasting blood glucose (FBG) levels of all mice were measured weekly, and tail markings were reinforced. […] At 9:00 AM every Friday, body weight was measured, the tail tip was clipped, and approximately 1-2 μL of (a drop of) blood was applied to a Roche Accu-Chek® Active test strip on a glucometer to determine FBG. […]
(§1) The mice of placebo group, rhCygb treatment group, and EX-4 treatment group received daily subcutaneous injections of PBS, rhCygb, or EX-4, respectively for 2 months (frequency adjusted based on survival status of mice). […] Absorbance at 510 nm was measured using a microplate reader. Cholesterol content was calculated according to the formula: […]

[2] = test system: pancreatic tissue of C57BL/6J diabetic model mice; assay: H&E staining of pancreatic tissue sections
Experimental: (§2) The AUC for blood glucose changes within two hours post-glucose gavage was shown in FIG. 5, confirming impaired glucose tolerance in the DM group. • 2) Successfully modeled mice were divided into three groups based on no statistical difference in blood glucose within groups and statistical difference in blood glucose between groups: wherein the three groups are rhCygb treatment group (5 mg/kg subcutaneous injection), exendin-4 treatment group (50 μg/kg subcutaneous injection), and placebo group (0.1 mL PBS subcutaneous injection) (grouping without re-caging, mice remained in original cages), respectively.
as §1
The severity of lesions observed in the HE-stained pathological sections of each mouse was graded. This ordinal data was analyzed using the K Independent Samples non-parametric test in SPSS software, and the result indicated a statistically significant difference between groups. As SPSS lacks pairwise comparison for multiple independent samples, all data were ranked and converted into quantitative data, then subjected to one-way ANOVA.

[3] = test system: renal tissue of C57BL/6J diabetic model mice; assay: H&E staining of renal tissue; settings: FIG. 14
Experimental: as §2
The mice of placebo group, rhCygb treatment group, and EX-4 treatment group received daily subcutaneous injections of PBS, rhCygb, or EX-4, respectively for 2 months (frequency adjusted based on survival status of mice). […] Mice were immediately sacrificed by cervical dislocation after blood collection and dissected for tissue collection. Liver tissue, pancreas, kidneys, heart, lungs, stomach, and spleen were sequentially collected for biochemical and pathological examination as detailed below. 3. Measurement of four blood lipid items • 1) Total Cholesterol (T-CHO) Measurement: prepared serum was diluted tenfold with physiological saline at a 1:9 ratio. […] Absorbance at 510 nm was measured using a microplate reader. Cholesterol content was calculated according to the formula: […]

PCNA = PCNA immunohistochemistry of pancreatic tissue; settings: pancreas; 4-week treatment; FIG. 15 to 16D
Experimental: (§3) Pancreatic tissues were sectioned at 4 μm and baked at 60° C. for 2 h until paraffin melted. Sections underwent hematoxylin-eosin (H&E) staining.
(§4) Sections were immersed in methanol containing 3% hydrogen peroxide (endogenous peroxidase blocker) for 15 min. After PBS (10 mM, pH=7.0) rinsing, sections were incubated at 25° C. for 1 h with antibody cocktails (rabbit anti-glucagon monoclonal antibody: anti-somatostatin antibody=1:1), or separately with: anti-mouse insulin antigen monoclonal antibody, anti-proliferating cell nuclear antigen (PCNA) monoclonal antibody, rabbit anti-Ki67 monoclonal antibody. Alternatively, sections were incubated with guinea pig anti-PDX-1 monoclonal antibody at 4° C. for 14 h. Nuclei were counterstained blue with hematoxylin and sections were subjected to morphometric analysis.
PCNA Analysis method: The immunohistochemistry results were analyzed for percentage using Image-Pro Plus 6.0 (Media Cybernetics, Rockville, MD, USA), at least 3 random field of view at 200× per section within a group were captured. […] Each photo was analyzed to obtain the number of positive cells and the total number of cells in each photo. Then, the percentage of positive cells was calculated, as: Positive cell percentage (%)=(Positive nuclei count/Total nuclei count)*100 was calculated as the positive rate.

[4] = test system: C57BL/6J diabetic model mice; assay: Four blood lipid items in serum of treated mice (T-CHO, TG, HDL-C, LDL-C kits); settings: after 28 d of treatment
Experimental: as §2
The mice of placebo group, rhCygb treatment group, and EX-4 treatment group received daily subcutaneous injections of PBS, rhCygb, or EX-4, respectively for 2 months (frequency adjusted based on survival status of mice). […] Mice were immediately sacrificed by cervical dislocation after blood collection and dissected for tissue collection. Liver tissue, pancreas, kidneys, heart, lungs, stomach, and spleen were sequentially collected for biochemical and pathological examination as detailed below. 3. Measurement of four blood lipid items • 1) Total Cholesterol (T-CHO) Measurement: prepared serum was diluted tenfold with physiological saline at a 1:9 ratio. Into each well of a 96-well plate, 2.5 μL of deionized water, 2.5 μL of standard, and 2.5 μL of sample were sequentially added. Then, 250 μL of working solution was added to each well, thoroughly mixed, and incubated at 37° C. for 10 min in an electric thermostatic incubator. Absorbance at 510 nm was measured using a microplate reader. Cholesterol content was calculated according to the formula: […]
Serum from each treated C57BL/6J mouse was assayed using a total cholesterol assay kit. […] Furthermore, no significant difference was observed between the treated groups (rhCygb treatment group and exendin-4 treatment group) and the blank control group, indicating effective therapeutic outcomes. • 2) Triglyceride (TG) Measurement: prepared serum was diluted tenfold with physiological saline at a 1:9 ratio. […] Absorbance at 510 nm was measured using a microplate reader. Triglyceride content was calculated according to the formula: […]
Serum from each treated C57BL/6J mouse was assayed using a triglyceride assay kit. […] Absorbance at 546 nm (A1) was measured using a microplate reader. […] Absorbance at 546 nm (A2) was measured again. HDL-C content was calculated according to the formula: […]
Serum from each treated C57BL/6J mouse was assayed using an HDL-C assay kit. […] Absorbance at 546 nm (A1) was measured using a microplate reader. […] Absorbance at 546 nm (A2) was measured again. LDL-C content was calculated according to the formula: […]

[5] = test system: Insulin and Glucagon expression in pancreatic islets; assay: Glucagon/Insulin immunohistochemistry of pancreatic islets (average optical density)
Experimental: as §3, §4
Glucagon/Insulin Analysis Method: The immunohistochemistry results were analyzed for average optical density analysis using Image-Pro Plus 6.0 (Media Cybernetics, Inc., Rockville, MD, USA). For each section with a group, at least 3 fields of view at 200× magnification were captured. […] The integrated optical density (IOD) value of positive staining on the pancreatic islet and the pixel area (AREA) of the pancreatic islet were analyzed for each photo. The average optical density value (AO value) was calculated as AO=IOD/AREA. […]

B1: rhCygb: recombinant human cytoglobin; hexacoordinate heme globin, 21.4 kDa, 190 amino acids, injected as PBS solution (protein, UniProt Q8WWM9 1-190, looked up)
Cytoglobin: MEKVPGEMEIERRERSEELSEAERKAVQAMWARLYANCEDVGVAILVRFFVNFPSAKQYFSQFKHMEDPLEMERSPQLRKHACRVMGALNTVVENLHDPDKVSSVLALVGKAHALKHKVEPVYFKILSGVILEVVAEEFASDFPPETQRAWAKLRGLIYSHVTAAYKEVGWVQQVPNATTPPATLPSSGP
For B1, the blood glucose [1] was “significantly reduced blood glucose after 6 weeks”, the “severity of lesions in HE-stained pancreatic sections (graded, ranked, one-way ANOVA)” value ([2]; FIG. 13) was “no significant difference between rhCygb and NC groups” and the “pancreatic tissue morphology (H&E)” value ([2]; acinar cell steatosis, islet morphology, inflammation, FIGS. 12A-12D) was “normal pancreatic islet morphology without significant inflammation”. For the same molecule, the “renal steatosis and inflammatory cell infiltration (H&E)” value [3] was “near-normal renal morphology without significant inflammatory cells”, the PCNA-positive cell rate (PCNA) was “significantly enhanced PCNA staining intensity” and the HDL-C levels ([4]; vs NC group, FIG. 10) was “numerically higher HDL-C levels on average compared to other groups”. For the same molecule, the total cholesterol levels ([4]; subcutaneous rhCygb 5 mg/kg or exendin-4 50 μg/kg, FIG. 8) was “statistically significant reduction in total cholesterol levels compared to the placebo group”, the LDL-C levels ([4]; subcutaneous rhCygb 5 mg/kg or exendin-4 50 μg/kg, FIG. 11) was “statistically significant reduction in LDL-C levels compared to the placebo group” and the triglyceride levels ([4]; subcutaneous rhCygb 5 mg/kg, FIG. 9) was “statistically significant reduction in triglyceride levels compared to the placebo group”. For the same molecule, the “expression level of glucagon (average optical density)” value ([5]; FIG. 17, 19) was “statistically significant differences compared to both the PBS group and the NC group” and the “expression level of insulin (average optical density)” value ([5]; FIG. 18, 20) was “statistically significant differences compared to both the PBS group and the NC group”.
